The series has as its system chromosome 15 (B2M) and chromosome 14 (TRAC) cut sites. Briefly: Translocation rates induced by translocation promoting oligos. It counts as cell-based, human. The following applies: Cas9/B2M12 and Cas9/TRAC5 RNPs 0.6 μM; average of plus and minus strand oligo; FIG. 11B.

Method: Two simultaneous DSBs were introduced in primary human T cells by nucleofection with Cas9/B2M (B2M12 gRNA) and Cas9/TRAC (TRAC5 gRNA) RNP complexes at a concentration of 0.6 μM, along with one of the translocation promoting oligos depicted in FIG. 11A.

B1: Dicentric oligo: translocation promoting ssODN, plus or minus strand, SEQ ID NOs: 16, 17 (nucleic acid)
chain 1: CACGCGTTTAATATAAGTGGAGGCGTCGCGCTGGCGGGCATTCCTGAAGCTGACAGCATTCGGGCCGAGATGATCAGGGTTCTGGATATCTGTGGGACAAGAGGATCAGGGTTAGGACATGATCTCATTTCCCTCTTTGCCCC
chain 2: GGGGCAAAGAGGGAAATGAGATCATGTCCTAACCCTGATCCTCTTGTCCCACAGATATCCAGAACCCTGATCATCTCGGCCCGAATGCTGTCAGCTTCAGGAATGCCCGCCAGCGCGACGCCTCCACTTATATTAAACGCGTG
modifications: /note=“Description of Unknown Donor template sequence”
Turning to B1, the translocation products enhanced entry is “enhanced the formation of Dicentric and Acentric translocation products”.

Source of the values: patent publication US12359223B2, “Systems and methods for modulating chromosomal rearrangements” (Editas Medicine, Inc., priority 2018, dated 2025).
